One block for each substance: values may come before it.
What was measured:
Test in all cases: not stated; tetrameric assembly of the BRIL-KcsA linker constructs; how it was judged is not told
[1] = target: BRIL-2turn-KcsA (construct 7) (UniProt P0A334)
[2] = target: BRIL-AAA-KcsA (construct 2) (UniProt P0A334)
[3] = target: BRIL-AAAA-KcsA (construct 3, 1 turn) (UniProt P0A334)
[4] = target: BRIL-AAAAA-KcsA (construct 4) (UniProt P0A334)
[5] = target: BRIL-AARAAA-KcsA (construct 5) (UniProt P0A334)
[6] = target: BRIL-AARAAAA-KcsA (construct 6) (UniProt P0A334)

Substance: BRIL-2turn-KcsA (construct 7) (from UniProt P0A334 24-160)
stoichiometry N [1]: 4

Substance: BRIL-AAAAA-KcsA (construct 4) (from UniProt P0A334 24-160)
stoichiometry N [4]: 4

Substance: BRIL-AARAAA-KcsA (construct 5) (from UniProt P0A334 24-160)
stoichiometry N [5]: 4

Substance: BRIL-AARAAAA-KcsA (construct 6) (from UniProt P0A334 24-160)
stoichiometry N [6]: 4

Second part, the substance after the results:

stoichiometry N [2]: 4
Substance: BRIL-AAA-KcsA (construct 2) (from UniProt P0A334 24-160)

stoichiometry N [3]: 4
Substance: BRIL-AAAA-KcsA (construct 3, 1 turn) (from UniProt P0A334 24-160)

— PMC7101349
